Source: US20200231684A1 (published 2020)
Where a chain is given by its changes, count along the chain named. Where two headings read alike, the source gives them in different places. Values belong to the binder of their own block, whether it stands above or below them.

Tests used:
[1] = target: T1, human IL-36R on cells (human, UniProt Q9HB29 20-575); test: cell-based or functional assay
T1 sequence (looked up): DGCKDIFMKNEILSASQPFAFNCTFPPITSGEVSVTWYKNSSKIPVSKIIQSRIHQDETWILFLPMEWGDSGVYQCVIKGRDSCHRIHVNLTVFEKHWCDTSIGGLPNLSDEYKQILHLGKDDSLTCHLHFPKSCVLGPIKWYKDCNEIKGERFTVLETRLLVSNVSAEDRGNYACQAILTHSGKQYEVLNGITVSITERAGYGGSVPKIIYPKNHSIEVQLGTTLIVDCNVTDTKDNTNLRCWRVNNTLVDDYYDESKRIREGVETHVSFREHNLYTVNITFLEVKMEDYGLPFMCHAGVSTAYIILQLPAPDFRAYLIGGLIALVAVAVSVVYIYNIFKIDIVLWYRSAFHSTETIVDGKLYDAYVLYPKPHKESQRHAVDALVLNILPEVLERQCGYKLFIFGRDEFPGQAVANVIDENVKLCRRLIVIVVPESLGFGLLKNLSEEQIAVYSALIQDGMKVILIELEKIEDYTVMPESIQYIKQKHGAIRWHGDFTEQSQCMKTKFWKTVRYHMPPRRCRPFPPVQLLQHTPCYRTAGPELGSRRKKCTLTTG

[2] = target: cynomolgus IL-36R on BaF/3 cells (cynomolgus, UniProt A0A2K5WSK9 20-558); test: cell-based or functional assay
Chain of cynomolgus IL-36R on BaF/3 cells (A0A2K5WSK9 entry or part of it): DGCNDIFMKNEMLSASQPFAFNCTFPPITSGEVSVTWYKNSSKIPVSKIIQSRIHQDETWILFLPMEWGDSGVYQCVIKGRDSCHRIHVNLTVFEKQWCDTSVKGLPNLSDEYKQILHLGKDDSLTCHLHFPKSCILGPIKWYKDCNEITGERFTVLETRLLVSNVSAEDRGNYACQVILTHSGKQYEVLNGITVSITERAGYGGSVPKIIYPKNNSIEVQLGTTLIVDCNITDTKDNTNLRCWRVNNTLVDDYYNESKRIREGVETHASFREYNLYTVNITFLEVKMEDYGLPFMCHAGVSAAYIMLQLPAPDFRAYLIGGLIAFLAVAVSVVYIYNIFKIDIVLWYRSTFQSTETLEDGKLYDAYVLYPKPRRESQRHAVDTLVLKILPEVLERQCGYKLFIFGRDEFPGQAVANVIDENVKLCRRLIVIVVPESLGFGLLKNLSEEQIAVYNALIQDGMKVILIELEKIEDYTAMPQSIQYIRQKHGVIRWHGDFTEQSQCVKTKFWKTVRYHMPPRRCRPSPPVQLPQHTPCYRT

[3] = target: T2, recombinant human IL-36R (ECD) (human, UniProt Q9HB29 20-332); test: SPR (ProteOn), single IL-36R surface coat concentration
T2 construct: range 20-332; also called IL-1RL2; IL-1Rrp2
T2 sequence (looked up): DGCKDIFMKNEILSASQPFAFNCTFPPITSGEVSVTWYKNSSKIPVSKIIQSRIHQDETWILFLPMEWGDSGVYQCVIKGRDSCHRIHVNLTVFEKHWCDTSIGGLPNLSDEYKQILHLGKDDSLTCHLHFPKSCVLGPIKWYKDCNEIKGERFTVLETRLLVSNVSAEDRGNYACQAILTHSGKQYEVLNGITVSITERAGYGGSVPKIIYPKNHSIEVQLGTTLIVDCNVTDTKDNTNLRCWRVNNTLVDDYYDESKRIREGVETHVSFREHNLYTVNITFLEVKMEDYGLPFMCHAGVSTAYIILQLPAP
Experimental: A) Kinetics and binding affinities of anti-IL-36R antibodies binding to recombinant human IL-36R were measured using the Proteon (Bio-Rad, Hercules, Calif.) using material generated from hybridoma following single column purification. […] Binding of the chimeric anti-IL36R IgGs is equivalent to the respective mouse leads.

[4] = target: T3, mouse IL-36R (mouse, UniProt Q9ERS7 22-338); test: BLI (Fortebio Octet), antibody injected over antigen surface
T3 sequence (looked up): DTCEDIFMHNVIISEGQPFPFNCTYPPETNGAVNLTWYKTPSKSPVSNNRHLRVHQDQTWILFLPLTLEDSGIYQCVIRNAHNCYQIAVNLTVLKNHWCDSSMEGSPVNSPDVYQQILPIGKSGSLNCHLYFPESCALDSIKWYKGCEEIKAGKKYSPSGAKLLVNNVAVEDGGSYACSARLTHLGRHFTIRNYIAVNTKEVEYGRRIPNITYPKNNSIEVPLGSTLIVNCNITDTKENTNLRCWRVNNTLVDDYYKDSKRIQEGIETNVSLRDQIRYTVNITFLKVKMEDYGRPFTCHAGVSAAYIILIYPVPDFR
Experimental: (§1) B) Molecular selectivity over mouse IL-36R and human IL-1R1 The mouse and chimeric anti-IL-36R antibodies were also injected over either a mouse IL-36R or a human IL-1R1 surface at a concentration of 100 nM. The binding signal to mouse IL-36R and to human IL-1R1 for these antibodies measured using the Fortebio Octet (Fortebio, Menlo Park, Calif.) is zero, which indicates these antibodies selectively bind to human IL-36R.

[5] = target: T4, human IL-1R1 (human, UniProt P14778 18-336, limits assumed); test: as above
T4 construct: also called IL-1RI
T4 sequence (looked up): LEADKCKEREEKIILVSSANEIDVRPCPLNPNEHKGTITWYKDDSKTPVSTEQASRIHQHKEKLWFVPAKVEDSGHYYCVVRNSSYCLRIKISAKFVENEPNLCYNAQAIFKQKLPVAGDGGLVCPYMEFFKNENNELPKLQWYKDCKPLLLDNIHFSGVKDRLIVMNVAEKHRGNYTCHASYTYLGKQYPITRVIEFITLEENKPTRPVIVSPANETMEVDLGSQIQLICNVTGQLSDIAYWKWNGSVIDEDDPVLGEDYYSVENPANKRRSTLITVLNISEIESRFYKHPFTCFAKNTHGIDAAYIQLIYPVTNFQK
Experimental: as §1

[6] = target: T1, human IL-36R on cells; test: cell-based or functional assay; remark: listed apart in the source

IC90, pNFκB, NCI/ADR-RES cells, trun-IL-36g [1]: 3.8 nM
IC90, pNFκB, BaF/3 cynomolgus IL-36R cells, trun-IL-36a [2]: > 4000 nM
IC90, pNFκB, BaF/3 cynomolgus IL-36R cells, trun-IL-36b [2]: > 333 nM
IC90, pNFκB, BaF/3 cynomolgus IL-36R cells, trun-IL-36g [2]: > 333 nM
Kd [3]: < 0.1 nM
binding result [4]: no binding (tested: 100 nM)
binding result [5]: no binding (tested: 100 nM)
B1: antibody 172C8 (antibody, V domains shown)
VH: EVQLQQSGPELVKPGASVKLSCKASGYTFTDNYMNWVRQSHGKSLEWIGRVNPSNGDTKYNQNFKGKATLTVDKSLSTAYMQLNGLTSEDSAVYYCGRTKNFYSSYSYDDAMDYWGQGTSVTVSS
VL: DIQMTQSPASQSASLGESVTFTCLASQTIGTWLAWYQQRPGKSPQLLIYAATSLADGVPSRFSGSGSGTQFSFNIRSLQAEDFASYYCQQVYTTPLTFGGGTKLEIK
notes: Mouse monoclonal from hybridoma; also called 172C8B12

IC90, pNFκB, NCI/ADR-RES cells, trun-IL-36a [6]: 4.6 nM
IC90, pNFκB, NCI/ADR-RES cells, trun-IL-36b [6]: 5.5 nM
IC90, pNFκB, NCI/ADR-RES cells, trun-IL-36g [6]: 3.4 nM
B2: Antibody C1 (antibody, human IgG1, kappa, L234A L235A, V domains shown)
VH: QVQLQESGPGLVAPSETLSLTCTVSGFSLTDYAVHWIRQFPGKGLEWIGVIWSDGSTDFNAPFKSRVTISKDTSKNQVSFKLSSVTTDDTAVYYCARKGGYSGSWFAYWGQGTLVTVSS
VL: EIVMTQSPATLSVSPGVRATLSCKASQDVGTNVLWYQQKPGQAPRPLIYSASYRHSGIPARFSGSGSGTEFTLTISSLQSEDFAEYYCQQYSRYPLTFGQGTKLEIKR

IC90, pNFκB, NCI/ADR-RES cells, trun-IL-36a [6]: 9.8 nM
IC90, pNFκB, NCI/ADR-RES cells, trun-IL-36b [6]: 5.6 nM
IC90, pNFκB, NCI/ADR-RES cells, trun-IL-36g [6]: 5.1 nM
B3: Antibody C3 (antibody, human IgG1, kappa, L234A L235A, V domains shown)
VH: B2 VH
VL: B2 VL with A60D, E85V

IC90, pNFκB, NCI/ADR-RES cells, trun-IL-36a [6]: 9.7 nM
IC90, pNFκB, NCI/ADR-RES cells, trun-IL-36b [6]: 8.6 nM
IC90, pNFκB, NCI/ADR-RES cells, trun-IL-36g [6]: 6.1 nM
B4: Antibody C2 (antibody, human IgG1, kappa, L234A L235A, V domains shown)
VH: B2 VH with A13K, L20I, F40P, F59Y, T73N, N76S, L82M, T87A
VL: B2 VL with A60D, E85V
